According to publication PMC11197489, “RNA 5-methylcytosine regulates YBX2-dependent liquid-liquid phase separation”:

B1: ITC unme-C RNA (ssRNA)
RNA: UCAUCUCU
B2: GU(m5C)U(m5C) (ssRNA)
RNA: GUCUC
modifications: m5C at positions 3 and 5
B3: ITC m5C RNA UCAU(m5C)UCU (ssRNA)
RNA: UCAUCUCU
modifications: m5C at position 5
B4: UCAU(m5C)U (ssRNA)
RNA: UCAUCU
modifications: m5C at position 5
B5: UCAU(m5C)UU (ssRNA)
RNA: UCAUCUU
modifications: m5C at position 5

Columns and labels:
Settings in all cases: protein: recombinant; tags: His6-SUMO removed by Ulp1
[1] = target: hYBX2 CSD W100F/Y173F (ITC) (human, UniProt Q9Y2T7 85-177, I92T;Q93K;W100F;Y173F); assay: ITC; ITC: 25 C, iTC200, buffer not stated (protein stock 10 mM Tris-HCl pH 8.0, 100 mM NaCl, 1 mM DTT); EMSA: 50 mM Tris-HCl pH 7.5, 100 mM NaCl, 0.4 mM EDTA, 0.1% NP-40, 1 mM DTT, 50% glycerol, BSA, on ice, 0.2% glutaraldehyde; pull-down: 100 mM NaCl, 10 mM Tris-HCl pH 7.6, 2 mM EDTA, 0.5% NP-40, 4 C
Sequence of hYBX2 CSD W100F/Y173F (ITC) (Q9Y2T7 85-177 I92T/Q93K/W100F/Y173F): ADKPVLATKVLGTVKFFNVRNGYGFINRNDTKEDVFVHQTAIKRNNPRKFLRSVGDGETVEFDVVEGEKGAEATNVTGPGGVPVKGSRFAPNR

hYBX2 CSD W100F (ITC) = hYBX2 CSD W100F (ITC) (human, UniProt Q9Y2T7 85-177, I92T;Q93K;W100F); assay: as above
Sequence of hYBX2 CSD W100F (ITC) (Q9Y2T7 85-177 I92T/Q93K/W100F): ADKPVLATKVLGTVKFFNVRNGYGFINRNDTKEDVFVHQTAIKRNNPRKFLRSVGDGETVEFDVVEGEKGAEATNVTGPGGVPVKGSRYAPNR

[2] = target: hYBX2 CSD I92T/Q93K (called wild-type in ITC) (human, UniProt Q9Y2T7 85-177, I92T;Q93K); assay: as above
Sequence of hYBX2 CSD I92T/Q93K (called wild-type in ITC) (Q9Y2T7 85-177 I92T/Q93K): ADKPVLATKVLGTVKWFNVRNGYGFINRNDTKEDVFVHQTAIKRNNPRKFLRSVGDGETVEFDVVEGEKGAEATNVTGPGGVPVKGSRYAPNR

[3] = target: hYBX2 CSD 85-177 (crystal) (human, UniProt Q9Y2T7 85-177, I92T;Q93K); assay: crystal structure; ITC: 25 C, iTC200, buffer not stated (protein stock 10 mM Tris-HCl pH 8.0, 100 mM NaCl, 1 mM DTT); EMSA: 50 mM Tris-HCl pH 7.5, 100 mM NaCl, 0.4 mM EDTA, 0.1% NP-40, 1 mM DTT, 50% glycerol, BSA, on ice, 0.2% glutaraldehyde; pull-down: 100 mM NaCl, 10 mM Tris-HCl pH 7.6, 2 mM EDTA, 0.5% NP-40, 4 C
Sequence of hYBX2 CSD 85-177 (crystal) (Q9Y2T7 85-177 I92T/Q93K): as above

[4] = target: hYBX2 CSD 85-165 (crystal) (human, UniProt Q9Y2T7 85-165, I92T;Q93K); assay: as above
Sequence of hYBX2 CSD 85-165 (crystal) (Q9Y2T7 85-165 I92T/Q93K): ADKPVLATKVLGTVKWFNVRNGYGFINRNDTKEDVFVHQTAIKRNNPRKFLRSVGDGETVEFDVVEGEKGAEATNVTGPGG

Binder | Kd [1] [nM] | Kd (hYBX2 CSD W100F (ITC)) [nM] | Kd [2] [nM] | binding result [3] | binding result [4]
B1 | 7260 ± 240 | 2590 ± 120 | 710 ± 60 |  | 
B2 |  |  |  | binds | 
B3 | 6330 ± 520 | 2340 ± 90 | 220 ± 20 |  | 
B4 |  |  |  | binds | binds
B5 |  |  |  | binds | 
